Assay results published in patent US20190112362A1 (published 2019).

Molecular target: Human Tau monomer (recombinant 2N4R isoform, amino acids 2-441) (human, UniProt P10636 2-441)
Experiment: SPR

Human Tau monomer (recombinant 2N4R isoform, amino acids 2-441), sequence (P10636 other isoform, or with tags, fused parts or gaps): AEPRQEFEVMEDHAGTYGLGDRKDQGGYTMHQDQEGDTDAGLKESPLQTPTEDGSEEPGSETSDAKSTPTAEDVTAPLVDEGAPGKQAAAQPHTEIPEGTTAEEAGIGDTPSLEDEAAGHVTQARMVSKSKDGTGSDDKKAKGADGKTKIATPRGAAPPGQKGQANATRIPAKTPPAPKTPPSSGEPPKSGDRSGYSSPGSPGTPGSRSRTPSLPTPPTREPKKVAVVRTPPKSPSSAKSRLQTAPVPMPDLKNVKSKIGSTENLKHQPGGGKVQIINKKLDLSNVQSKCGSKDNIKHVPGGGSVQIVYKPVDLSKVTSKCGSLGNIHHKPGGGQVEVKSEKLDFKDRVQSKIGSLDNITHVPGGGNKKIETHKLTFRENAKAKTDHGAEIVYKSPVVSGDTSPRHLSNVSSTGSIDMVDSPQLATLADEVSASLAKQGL

Binder: EDLHSNADTYFL [hu37D3.v29.8]
- Kd: 40.9 nM
